# Experimental data from patent publication US8748182B2, “Mutant proteins and methods for producing them” (Heptares Therapeutics Limited, priority 2007, dated 2014).
# Where a chain is given by its changes, count along the chain named. Numbers in names are those of the source.
# B1: V239A: A2aR point mutant (protein, UniProt P29274 1-412, looked up, variant V239A)
# Adenosine receptor A2a: MPIMGSSVYITVELAIAVLAILGNVLVCWAVWLNSNLQNVTNYFVVSLAAADIAVGVLAIPFAITISTGFCAACHGCLFIACFVLVLTQSSIFSLLAIAIDRYIAIRIPLRYNGLVTGTRAKGIIAICWVLSFAIGLTPMLGWNNCGQPKEGKNHSQGCGEGQVACLFEDVVPMNYMVYFNFFACVLVPLLLMLGVYLRIFLAARRQLKQMESQPLPGERARSTLQKEVHAAKSLAIIAGLFALCWLPLHIINCFTFFCPDCSHAPLWLMYLAIVLSHTNSVVNPFIYAYRIREFRQTFRKIIRSHVLRQQEPFKAAGTSARVLAAHGSDGEQVSLRLNGHPPGVWANGSAPHPERRPNGYALGLVSGGSAQESQGNTGLPDVELLSHELKGVCPEPPGLDDPLAQDGAGVS
# B2: Rag 1: A2aR with A184L/R199A/L272A (protein, UniProt P29274 1-412, looked up, variant A184L R199A L272A)
# Adenosine receptor A2a: B1 Adenosine receptor A2a with A184L, R199A, A239V, L272A
# B3: R199A: A2aR point mutant (protein, UniProt P29274 1-412, looked up, variant R199A)
# Adenosine receptor A2a: B1 Adenosine receptor A2a with R199A, A239V
# B4: Rant 21: A2aR with A54L, T88A, V239A+K122A (protein, UniProt P29274 1-412, looked up, variant A54L T88A V239A K122A)
# Adenosine receptor A2a: B1 Adenosine receptor A2a with A54L, T88A, K122A
# B5: Rant 5: A2aR with A54L/T88A/V239A (protein, UniProt P29274 1-412, looked up, variant A54L T88A V239A)
# Adenosine receptor A2a: B1 Adenosine receptor A2a with A54L, T88A
# B6: Rant19: A2aR with A54L, T88A, V239A+A204L (protein, UniProt P29274 1-412, looked up, variant A54L T88A V239A A204L)
# Adenosine receptor A2a: B1 Adenosine receptor A2a with A54L, T88A, A204L
# B7: S213A: A2aR point mutant (protein, UniProt P29274 1-412, looked up, variant S213A)
# Adenosine receptor A2a: B1 Adenosine receptor A2a with S213A, A239V
# B8: Q210A: A2aR point mutant (protein, UniProt P29274 1-412, looked up, variant Q210A)
# Adenosine receptor A2a: B1 Adenosine receptor A2a with Q210A, A239V
# B9: Rant17: A2aR with A54L+K122A+L235A (protein, UniProt P29274 1-412, looked up, variant A54L K122A L235A)
# Adenosine receptor A2a: B1 Adenosine receptor A2a with A54L, K122A, L235A, A239V
# B10: L208A: A2aR point mutant (protein, UniProt P29274 1-412, looked up, variant L208A)
# Adenosine receptor A2a: B1 Adenosine receptor A2a with L208A, A239V
# B11: A184L: A2aR point mutant (protein, UniProt P29274 1-412, looked up, variant A184L)
# Adenosine receptor A2a: B1 Adenosine receptor A2a with A184L, A239V
# B12: A203L: A2aR point mutant (protein, UniProt P29274 1-412, looked up, variant A203L)
# Adenosine receptor A2a: B1 Adenosine receptor A2a with A203L, A239V
# Assays:
# [1] = Thermostability assay of detergent-solubilised βAR34-424 and mutants expressed in E. coli ([3H]-DHA binding after heating 30 min); conditions: for increase in Tm compared to βAR34-424 (native protein) / Tm (° C.): DDM-solubilised; for increase in Tm compared to βAR34-424 (native protein): heated without ligand; for Tm (° C.): heated 30 min without ligand, then [3H]-DHA binding, E. coli, mean ± S.E. from duplicates
# Description: To determine Tm in the absence of ligand (apo-state, discontinuous lines), detergent-solubilised receptors were incubated for 30 minutes at the temperatures indicated before carrying out the binding assay. […] Data points are from duplicates measurements in a representative experiment.
# Binding assays were performed using [^3H]-dihydroalprenolol (DHA) as radioligand as described under “Methods”. Samples were heated for 30 minutes at different temperatures before the assay. […] Data points are from duplicates of one single experiment. This experiment has been repeated several times with similar results.
# Expression of βAR and the mutants was performed in XL10 cells (Stratagene). Cultures of 50 ml of 2×TY medium containing ampicillin (100 μg/ml) were grown at 37° C. with shaking until OD600=3 and then induced with 0.4 mM IPTG. Induced cultures were incubated at 25° C. for 4 h and then cells were harvested by centrifugation at 13,000×g for 1 min (aliquots of 2 ml) and stored at −20° C. For the assays, cells were broken by freeze-thaw (five cycles), resuspended in 500 μl of buffer [20 mM Tris pH 8, 0.4 M NaCl, 1 mM EDTA and protease inhibitors (Complete™, Roche)]. After an incubation for 1 h at 4° C. with 100 μg/ml lysozyme and DNase I (Sigma), samples were solubilized with 2% DDM on ice for 30 minutes. Insoluble material was removed by centrifugation (15,000×g, 2 min, 4° C.) and the supernatant was used directly in radioligand binding assays.
# Single point binding assays contained 20 mM Tris pH 8, 0.4 M NaCl, 1 mM EDTA, 0.1% DDM (or corresponding detergent) with 50 nM [^3H]-DHA and 20-100 μg membrane protein in a final volume of 120 μl; equilibration was for 1 h at 4° C. Thermostability was assessed by incubating the binding assay mix, with or without [^3H]-DHA at the specified temperature for 30 minutes; reactions were placed on ice and [^3H]-DHA added as necessary and equilibrated for a further hour. […] Radioactivity was counted on a Beckman LS6000 liquid scintillation counter and data were analyzed by nonlinear regression using Prism software (GraphPad).
# [2] = Stability of wild-type and mutant A2aR in different detergents; assay type: physicochemical
# [3] = Thermostability of solubilised adenosine A2a receptor and mutants (radioligand binding after or during heating); assay type: physicochemical; conditions: for Tm (° C.) − agonist / Tm (° C.) − antagonist / Tm (° C.) + agonist / Tm (° C.) + antagonist: 1% DDM (no glycerol), S.D. <1° C.; for Tm (° C.) − agonist / Tm (° C.) − antagonist: apo-state; for Tm (° C.) + agonist / Tm (° C.) + antagonist: ligand-occupied state; for thermostability assayed with 3H-ZM241385 (antagonist) / thermostability measured with 3H-NECA (agonist): Ligand(−) format, binding after the heating step
# Description: FIG. 12 Flow chart showing the two different assay formats of ligand (+) and ligand (−) used to determine receptor thermostablity.
# • 1. 315 site-directed mutants made between residues 2-316 of A2aR. • 2. All of these mutants have been assayed for thermostability using an assay measuring agonist and antagonist binding after the heating step (Ligand(−) format as described in FIG. 12). • a. […] Mutations have been combined to generate mutants in a putative antagonist conformation. Wildtype A2aR has a Tm of 31° C. with ZM241385 bound. • a. Rant17 A54L+K122A+L235A Tm 48° C. (ZM241385 bound) • b. Rant19 A54L,T88A,V239A+A204L Tm 47° C. (ZM241385 bound) • c. Rant21 A54L,T88A,V239A+K122A Tm 49° C. (ZM241385 bound) • 4. Mutations from the agonist screen have been combined, but have led to only a very low level of improvement in Tm of +2° C.
# [4] = 0.3% NG, † = receptor too unstable to determine the Tm
# [5] = 0.6% OG, † = receptor too unstable to determine the Tm
molecule,measurement,setting,value
M90A: βAR34-424 point mutant M90A,increase in Tm compared to βAR34-424 (native protein),[1],8 °C
Y227A: βAR34-424 point mutant Y227A,increase in Tm compared to βAR34-424 (native protein),[1],8 °C
"m4-7: βAR34-424 with G67A, G98A, V230A",Tm (° C.),[1]; Table 1,38.0 ± 1.2 °C
same,further increase in Tm on adding one mutation to the preceding mutant,"[1]; m4-1 to m4-7 to m4-2, m18 to m23",2 °C
"m6-4: βAR34-424 with R68S, Y227A, A234L, A282L",Tm (° C.),[1]; Table 1,41.6 ± 0.1 °C
"m6-5: βAR34-424 with R68S, A234L, A282L, A334L",Tm (° C.),[1]; Table 1,41.9 ± 0.5 °C
"m6-9: βAR34-424 with R68S, Y227A, A234L, A282L, A334L",Tm (° C.),[1]; Table 1,43.7 ± 0.4 °C
"m6-10: βAR34-424 with R68S, Y227A, A282L, A334L",Tm (° C.),[1]; Table 1,47.4 ± 1.1 °C
"m6-11: βAR34-424 with R68S, A282L, A334L",Tm (° C.),[1]; Table 1,39.1 ± 0.5 °C
"m7-1: βAR34-424 with M90V, A282L, F338M",Tm (° C.),[1]; Table 1,43.0 ± 0.8 °C
"m7-2: βAR34-424 with M90V, A282L",Tm (° C.),[1]; Table 1,38.9 ± 0.6 °C
"m7-5: βAR34-424 with M90V, Y227A",increase in Tm compared to βAR34-424 (native protein),[1],13 °C
same,Tm (° C.),[1]; Table 1,45.2 ± 1.0 °C
"m7-6: βAR34-424 with M90V, I129V",Tm (° C.),[1]; Table 1,40.0 ± 0.6 °C
"m7-7: βAR34-424 with M90V, Y227A, F338M",Tm (° C.),[1]; Table 1,45.2 ± 2.0 °C
"m10-4: βAR34-424 with R68S, M90V, V230A, A334L",Tm (° C.),[1]; Table 1,46.9 ± 1.0 °C
"m10-8: βAR34-424 with R68S, M90V, V230A, F327A, A334L",Tm (° C.),[1]; Table 1,47.3 ± 1.4 °C
"m17: βAR34-424 with R68S, M90V, Y227A, V230A, F327A, A334L",Tm (° C.),[1]; Table 2,48.2 ± 1.4 °C
"m18: βAR34-424 with R68S, M90V, Y227A, V230A, A282L, F327A, F338M",Tm (° C.),[1]; Table 2,49.6 °C
"m19: βAR34-424 with R68S, M90V, Y227A, A282L, F327A, F338M as printed (same as m23)",Tm (° C.),[1]; Table 2,49.0 ± 0.8 °C
"m20: βAR34-424 with R68S, M90V, F327A, A334L",Tm (° C.),[1]; Table 2,48.4 ± 0.7 °C
"m21: βAR34-424 with R68S, M90V, Y227A, F327A, A334L",Tm (° C.),[1]; Table 2,47.0 ± 1.3 °C
wt: wild-type human adenosine A2a receptor (A2aR),Tm (° C.) Agonist-binding,[2]; 0.003% LDAO,28 °C
same,Tm (° C.) Antagonist-binding,[2]; 0.003% LDAO,32 °C
same,Tm (° C.) Agonist-binding,[2]; 0.006% FC12,37 °C
same,Tm (° C.) Antagonist-binding,[2]; 0.006% FC12,43 °C
same,Tm (° C.) Agonist-binding,[2]; 0.01% DDM,27 °C
same,Tm (° C.) Antagonist-binding,[2]; 0.01% DDM,25 °C
same,Tm (° C.) Agonist-binding,[2]; 0.1% DM,23 °C
same,Tm (° C.) Antagonist-binding,[2]; 0.1% DM,10 °C
same,Tm (° C.) Agonist-binding,[2]; [4],†
same,Tm (° C.) Antagonist-binding,[2]; [4],†
same,Tm (° C.) Agonist-binding,[2]; 0.3% NM,22 °C
same,Tm (° C.) Antagonist-binding,[2]; 0.3% NM,<4 °C
same,Tm (° C.) Agonist-binding,[2]; 0.6% OG,<9 °C
same,Tm (° C.) Antagonist-binding,[2]; [5],†
same,Tm (° C.) − agonist,[3],21 °C
same,Tm (° C.) − antagonist,[3],31 °C
same,Tm (° C.) + agonist,[3],29 °C
same,Tm (° C.) + antagonist,[3],32 °C
same,Tm (ZM241385 bound),[3],31 °C
B1,thermostability assayed with 3H-ZM241385 (antagonist),[3],improved thermostability
B2,Tm (° C.) − agonist,[3],26 °C
same,Tm (° C.) + agonist,[3],34 °C
B3,thermostability measured with 3H-NECA (agonist),[3],improved thermostability
B4,Tm (° C.) Antagonist-binding,[2]; 0.003% LDAO,42 °C
same,Tm (° C.) Antagonist-binding,[2]; 0.006% FC12,49 °C
same,Tm (° C.) Antagonist-binding,[2]; 0.01% DDM,39 °C
same,Tm (° C.) Antagonist-binding,[2]; 0.1% DM,28 °C
same,Tm (° C.) Antagonist-binding,[2]; [4],22 °C
same,Tm (° C.) Antagonist-binding,[2]; 0.3% NM,25 °C
same,Tm (° C.) Antagonist-binding,[2]; [5],23 °C
same,Tm (° C.) − antagonist,[3],41 °C
same,Tm (° C.) + antagonist,[3],49 °C
same,Tm (ZM241385 bound),[3],49 °C
B5,Tm (° C.) − antagonist,[3],42 °C
same,Tm (° C.) + antagonist,[3],46 °C
B6,Tm (ZM241385 bound),[3],47 °C
B7,thermostability measured with 3H-NECA (agonist),[3],improved thermostability
B8,thermostability measured with 3H-NECA (agonist),[3],improved thermostability
B9,Tm (ZM241385 bound),[3],48 °C
B10,thermostability measured with 3H-NECA (agonist),[3],improved thermostability
B11,thermostability measured with 3H-NECA (agonist),[3],improved thermostability
B12,thermostability assayed with 3H-ZM241385 (antagonist),[3],improved thermostability
same,thermostability measured with 3H-NECA (agonist),[3],improved thermostability
